The source of these data is the supplement of paper PMC9170038.

The series concerns K4 kissing-loop RNA reporter. Put plainly: apparent KD of K4 kissing-loop reporter; higher = weaker reporter binding. The note with it: Eterna round: R107. On the procedure:
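RNA-MaP round R107: designed RNA switches with theophylline, tryptophan, arginine or FMN aptamers are transcribed on-chip within common flanks. They are titrated with a labelled K4 kissing-loop RNA reporter in RNA-MaP buffer (100 mM Tris pH 7.5, 80 mM KCl, 4 mM MgCl2), without ligand or with the indicated ligand. Median apparent KD per design.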

[1] abbreviates: input ligand: theophylline 20 uM.
Where [2] appears, read: input ligand: tryptophan 2.4 mM.
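Further: bound reporter read as fluorescence of individual clusters on recovered sequencing chips by microscopy, with normalized cluster intensities fitted with a binding model.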

As for “GCCGUAGAUUGAAGGAGCGCCAUCUUACCAAGAGUGAUGUUCUUUGGUACCAUGUACAGCUGGCAGGUAGGUCGCAAUCUACGGC”, the “apparent KD of K4 kissing-loop reporter” value is, setting by setting: (input ligand: FMN 200 uM) 192 nM; (input ligand: arginine 13.2 mM) 151 nM; (input ligand: none) 173 nM; under setting [1], 181 nM; under setting [2], 169 nM.

Consider “GCCGUAGAUUGAAGGAGCGCCGCGCAUGUCCCGCUUAGUGUAGUGAUGUUACAGUUUCAGCGGCAGGUAGGUCGCAAUCUACGGC”, for which the “apparent KD of K4 kissing-loop reporter” value was found to be 83.4 nM (input ligand: FMN 200 uM); 83.3 nM (input ligand: arginine 13.2 mM); 81.3 nM (input ligand: none); 77.2 nM under setting [1]; 69.5 nM under setting [2].

Consider “GCCUACGAUGCAGGAUAUAGCUCGCGAGUGAUGUUCGCAGCUGUAUGGUAGUAAGCUUCCACGUGUCUAGAAGGGCAUCGUAGGC [#01 K4 FMN B Exclusion]”, for which the “apparent KD of K4 kissing-loop reporter” value is, setting by setting: (input ligand: FMN 200 uM) 131 nM; (input ligand: arginine 13.2 mM) 80.2 nM; (input ligand: none) 93.6 nM; under setting [1], 83.3 nM; under setting [2], 88.7 nM.

“GCGCGGCACAGUGAUGUUGUGCCUCGGAGACGAGGACCGGUACGGCCGCCACUCGUCCGCGCAGCUGAGGCAAAAGCCUCGGCAA [Omei KL Tryp A SS B v4]”: the “apparent KD of K4 kissing-loop reporter” value reads like this: (input ligand: FMN 200 uM) 382 nM; (input ligand: arginine 13.2 mM) 393 nM; (input ligand: none) 473 nM; under setting [1], 447 nM; under setting [2], 128 nM.

“GCGCGUCAUGUCAGCGGUGACUACGUCGAUACCAGCAGGGAAACCUGCCCUUGGCAGCGACGCGCUGGAGUGAUGUUCCGACAGA [#2 Exclusion - Theophylline A Attempt #5 (HarryS)]”: the “apparent KD of K4 kissing-loop reporter” value (input ligand: FMN 200 uM) was 218 nM; the “apparent KD of K4 kissing-loop reporter” value (input ligand: arginine 13.2 mM) was determined as 247 nM; the “apparent KD of K4 kissing-loop reporter” value (input ligand: none) was 192 nM; the “apparent KD of K4 kissing-loop reporter” value under setting [1] was 309 nM; the “apparent KD of K4 kissing-loop reporter” value under setting [2] was 176 nM.

On to “GCGCUUAAAUAAGGAUAUUACAGACUCAUCUACGAGUGAUGUUCGGUGCGCUGUGCACAGAGCCUGUAAGAAGGUAUAGCAUUGC [theeternabot_sameState_KL_FMN_B_41]”, for which the “apparent KD of K4 kissing-loop reporter” value turned out to be 1010 nM (input ligand: FMN 200 uM); 716 nM (input ligand: arginine 13.2 mM); 1180 nM (input ligand: none); 811 nM under setting [1]; 861 nM under setting [2].

With “GCUAUGGUAGGAAGGAGCGCUUACUCAUUAAUAAGAGUGAUGUUCGAUAAUGAGUAUUUAUAGCAGGUAGGUCGCCUACUAUAGC [Arginine B K4 3]”, the “apparent KD of K4 kissing-loop reporter” value is 280 nM (input ligand: FMN 200 uM); 221 nM (input ligand: arginine 13.2 mM); 270 nM (input ligand: none); 247 nM under setting [1]; 237 nM under setting [2].

As to “GCUAUGGUAGGAAGGAGCGCUUAUUUAUUUUUAAGAGUGAUGUUCGUUAGUAGAUAUUUAAAGCAGGUAGGUCGCCUACUAUAGC [Arginine B K4 14]”, the “apparent KD of K4 kissing-loop reporter” value by setting is: (input ligand: FMN 200 uM) 85.8 nM; (input ligand: arginine 13.2 mM) 124 nM; (input ligand: none) 84 nM; under setting [1], 120 nM; under setting [2], 52 nM.

As to “GCUAUGGUAGGAAGGAGCGCUUGCUCGGUCAUAAGAGUGAUGUUCGAGACCGAGCAUUUAUAGCAGGUAGGUCGCCUACUAUAGC [Arginine B K4 7]”, the “apparent KD of K4 kissing-loop reporter” value (input ligand: FMN 200 uM) amounted to 310 nM; the “apparent KD of K4 kissing-loop reporter” value (input ligand: arginine 13.2 mM) turned out to be 194 nM; the “apparent KD of K4 kissing-loop reporter” value (input ligand: none) was 200 nM; the “apparent KD of K4 kissing-loop reporter” value under setting [1] is 256 nM; the “apparent KD of K4 kissing-loop reporter” value under setting [2] was 250 nM.

For “GCUCAGGAGUGAUGUUCCAAGUGGUGUUAACGAGGACCGGUACGGCCGCCACUCGAUACGGCCGGACCGUAGGAUAAACUAGAGC [Same State - Tryptophan A (Freestyle 11)]”, the “apparent KD of K4 kissing-loop reporter” value (input ligand: FMN 200 uM) worked out at 233 nM; the “apparent KD of K4 kissing-loop reporter” value (input ligand: arginine 13.2 mM) worked out at 175 nM; the “apparent KD of K4 kissing-loop reporter” value (input ligand: none) amounted to 196 nM; the “apparent KD of K4 kissing-loop reporter” value under setting [1] is 280 nM; the “apparent KD of K4 kissing-loop reporter” value under setting [2] was found to be 206 nM.

With “GCUGCCAUGGCAGGAUAUAUAAAUGCUGAGUGAUGUUCUGCAUCAUAUGUCCCUGACCGCGGCGGUGUAGAAGGGCCAUGGCAGC”, the “apparent KD of K4 kissing-loop reporter” value runs as follows: (input ligand: FMN 200 uM) 135 nM; (input ligand: arginine 13.2 mM) 93 nM; (input ligand: none) 107 nM; under setting [1], 97.1 nM; under setting [2], 103 nM.

For “GGAAAUCUUGCCGAUACCAGAUCGCGCGGCCAUUGCUAGUGAUGUUGGCAAUAAGUACUCAUCCCUUGGCAGCGGUAAGGCAGUG [theeternabot_sameState_KL_Theo_B_23]”, the “apparent KD of K4 kissing-loop reporter” value turned out to be 390 nM (input ligand: FMN 200 uM); 293 nM (input ligand: arginine 13.2 mM); 359 nM (input ligand: none); 195 nM under setting [1]; 280 nM under setting [2].

“GGAAGGAAGGAAACCAACCAACCAACCGAUACCAGCGGAAGAGAACGCCCUUGGCAGCGGAGAAAGCCAGUGAUGUUGGAAAGAA”: the “apparent KD of K4 kissing-loop reporter” value was 324 nM (input ligand: FMN 200 uM); 224 nM (input ligand: arginine 13.2 mM); 402 nM (input ligand: none); 300 nM under setting [1]; 318 nM under setting [2].

As to “GGAAUGCUGUAAGGAUAUCUCGGACGGUUACUCCGUUUCUCGCGUGUAAGAAUCUGAGUGAUGUUUAGAGAAGGUACGCUGGUUA [theeternabot_exclusion_KL_FMN_B_21]”, the “apparent KD of K4 kissing-loop reporter” value is, setting by setting: (input ligand: FMN 200 uM) 178 nM; (input ligand: arginine 13.2 mM) 233 nM; (input ligand: none) 240 nM; under setting [1], 225 nM; under setting [2], 149 nM.

Turning to “GGACACUAGGAAACUAGUGUCUCAACUGAAGGAGCGUGAAUAGUCACAGGUAGGUCGCAGUUUGUUAGUGAUGUUGACAUGAGUU [#16 K4 Arginine A Same State]”, the “apparent KD of K4 kissing-loop reporter” value stood at 302 nM (input ligand: FMN 200 uM); 394 nM (input ligand: arginine 13.2 mM); 514 nM (input ligand: none); 439 nM under setting [1]; 277 nM under setting [2].

Take “GGAGGGAUCUCGGCCGCCACUCGUGGGAAAUGGGCCUCAGGGAUAUAGUGAUGUUAUGUAAAGAAGAGGACCGGGAGAAGGAAGG [ExTryptoB.Dg]”: the “apparent KD of K4 kissing-loop reporter” value (input ligand: FMN 200 uM) was found to be 319 nM; the “apparent KD of K4 kissing-loop reporter” value (input ligand: arginine 13.2 mM) was found to be 269 nM; the “apparent KD of K4 kissing-loop reporter” value (input ligand: none) was determined as 330 nM; the “apparent KD of K4 kissing-loop reporter” value under setting [1] was 366 nM; the “apparent KD of K4 kissing-loop reporter” value under setting [2] stood at 240 nM.
